In PMC11723632 (PLOS Pathogens, 2024):

Molecular target: EBOV sGP (secreted form of GP) (Zaire ebolavirus, Mayinga-76 …, UniProt P60170)
Test: ELISA
Conditions: both partners purified

EBOV sGP (secreted form of GP), sequence (P60170 33-305): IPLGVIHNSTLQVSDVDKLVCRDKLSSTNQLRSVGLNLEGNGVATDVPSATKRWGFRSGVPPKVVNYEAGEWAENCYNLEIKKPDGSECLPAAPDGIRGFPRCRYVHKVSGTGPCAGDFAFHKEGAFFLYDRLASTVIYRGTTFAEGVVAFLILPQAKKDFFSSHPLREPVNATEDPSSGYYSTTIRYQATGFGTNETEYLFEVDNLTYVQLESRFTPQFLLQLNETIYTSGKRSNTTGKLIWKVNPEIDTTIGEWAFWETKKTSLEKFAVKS

B1: Nanosota-EB1-His (VHH)
VHH: QVQLQESGGGQVQAGGSLRLSCAASGSTSVIYAMGWYRQAPGKQRELVAAITRGVGSTNYADSVKGRFTISRDNAKNTMYLQMNSLKPEDTAVYYCNARLLVAPPPYEYDYWGQGTQVTVSS
binding result: binds

B2: Nanosota-EB2-His (VHH)
VHH: QVQLQESGGGVVQAGGSLRLSCSASGRTFSNYAMAWFRQAPGKDREFAAGINYNGERTAYADSVKGRFTISRDDAKNTVYLQMNSLKPEDTAVYSCAARPWSIANLAYTYDSWGQGTQVTVSS
binding result: no binding
